Paper doi:10.1101/2020.06.27.175497, “Novel mode of filament formation in UPA-promoted CARD8 and NLRP1 Inflammasomes” (bioRxiv, 2020)

B1: CARD8-CT (UPA-CARD fragment of CARD8, S297-L537) (domain or fragment, human, UniProt Q9Y2G2-5 297-537, looked up)
chain: SLMGILLRIASGTRLSIPITSNTLIYYHPHPEDIKFHLYLVPSDALLTKAIDDEEDRFHGVRLQTSPPMEPLNFGSSYIVSNSANLKVMPKELKLSYRSPGEIQHFSKFYAGQMKEPIQLEITEKRHGTLVWDTEVKPVDLQLVAASAPPPFSGAAFVKENHRQLQARMGDLKGVLDDLQDNEVLTENEKELVEQEKTRQSKNEALLSMVEKKGDLALDVLFRSISERDPYLVSYLRQQNL
notes: CARD8, human, UPA-CARD fragment S297-L537 of the T60 isoform; numbers count on: the T60 isoform Q9Y2G2-5; Forms helical filaments; the purified filaments still held some uncleaved His-MBP-tagged subunits; Only the CARD is resolved in the map; also called CARD8^UPA-CARD; source: E. coli BL21 (DE3), purified (amylose resin, MBP-3C protease cleavage, Superose 6 void fraction); not shown: His, …
B2: NLRP1-CT (UPA-CARD fragment of NLRP1, S1213-S1473) (domain or fragment, human, UniProt Q9C000-1 1213-1473, looked up)
chain: SPLGVLLKMIHNALRFIPVTSVVLLYHRVHPEEVTFHLYLIPSDCSIRKAIDDLEMKFQFVRIHKPPPLTPLYMGCRYTVSGSGSGMLEILPKELELCYRSPGEDQLFSEFYVGHLGSGIRLQVKDKKDETLVWEALVKPGDLMPATTLIPPARIAVPSPLDAPQLLHFVDQYREQLIARVTSVEVVLDKLHGQVLSQEQYERVLAENTRPSQMRKLFSLSQSWDRKCKDGLYQALKETHPHLIMELWEKGSKKGLLPLSS
notes: NLRP1, human, UPA-CARD fragment S1213-S1473, isoform 1 (Q9C000-1); Forms thick helical filaments of CARD dimers; the purified filaments still held some uncleaved His-MBP-tagged subunits; Only the CARD is resolved in the map; also called NLRP1^UPA-CARD; source: E. coli BL21 (DE3), purified (amylose resin, Superose 6, MBP-3C protease cleavage, Superose 6 void fraction); not shown: His, …
B3: NLRP1^CARD (D1374-S1473, with G1463C) (domain or fragment, human, UniProt Q9C000-1 1374-1473, looked up)
chain: DAPQLLHFVDQYREQLIARVTSVEVVLDKLHGQVLSQEQYERVLAENTRPSQMRKLFSLSQSWDRKCKDGLYQALKETHPHLIMELWEKCSKKGLLPLSS
notes: NLRP1, human, CARD D1374-S1473, isoform 1 (Q9C000-1); G1463C (helix alpha6) was added for cysteine labelling in the constructs for in vitro analyses; The cleavage of the tag is described for the CARD8^CARD filament assay; also called CARD alone; WT CARD; source: E. coli BL21 (DE3), purified as monomeric MBP-CARD (amylose resin, Superdex 200), filaments formed in vitro
B4: ASC^CARD (106-195, W169G) - 5 x GSS linker - caspase-1^CARD (1-95, G20K) fusion protein (other)
chain: SAAKPGLHFIDQHRAALIARVTNVEWLLDALYGKVLTDEQYQAVRAEPTNPSKMRKLFSFTPAGNWTCKDLLLQALRESQSYLVEDLERSGSSGSSGSSGSSGSSMADKVLKEKRKLFIRSMGEKTINGLLDELLQTRVLNKEEMEKVKRENATVMDKTRALIDSVIPKGAQACQICITYICEEDSYLAGTLGLSADQTS
notes: ASC, CARD, residues 106-195; 5 x GSS linker, written out from '5XGSS'; caspase-1, CARD, residues 1-95; Tetramer of the fusion = octamer of CARDs; also called ASC^CARD-caspase-1^CARD fusion protein; ASC^CARD-CASP1^CARD; source: E. coli BL21 (DE3), purified (Ni-NTA, TEV cleavage, amylose flow-through, Superdex 200); not shown: His6, N-terminal, cleaved; MBP, N-terminal, cleaved
B5: ASC^CARD (106-195) W169G (domain or fragment, UniProt Q9ULZ3 106-195, looked up)
chain: SAAKPGLHFIDQHRAALIARVTNVEWLLDALYGKVLTDEQYQAVRAEPTNPSKMRKLFSFTPAGNWTCKDLLLQALRESQSYLVEDLERS
notes: ASC, CARD, residues 106-195; Stood in the experiment on one chain with caspase-1^CARD G20K through a 5 x GSS linker (fusion m9); also called type IIa W169G mutant of ASC^CARD; source: E. coli BL21 (DE3), purified (Ni-NTA, TEV cleavage, amylose flow-through, Superdex 200), as part of the fusion m9
B6: caspase-1^CARD (1-95) G20K (domain or fragment, UniProt P29466 1-95, looked up)
chain: MADKVLKEKRKLFIRSMGEKTINGLLDELLQTRVLNKEEMEKVKRENATVMDKTRALIDSVIPKGAQACQICITYICEEDSYLAGTLGLSADQTS
notes: caspase-1, CARD, residues 1-95; Stood in the experiment on one chain with ASC^CARD W169G through a 5 x GSS linker (fusion m9); also called CASP1^CARD; type IIb G20K mutant of caspase-1^CARD; source: E. coli BL21 (DE3), purified (Ni-NTA, TEV cleavage, amylose flow-through, Superdex 200), as part of the fusion m9
B7: His-MBP-3C-UPA-CARD of NLRP1 (uncleaved MBP fusion of NLRP1-CT) (domain or fragment, human, UniProt Q9C000-1 1213-1473, looked up)
chain: B2 chain
notes: NLRP1, human, UPA-CARD fragment S1213-S1473, isoform 1 (Q9C000-1); HRV 3C protease linker between MBP and UPA-CARD; modified pDB-His-MBP vector; also called MBP-fusion protein; MBP-CT fusion protein; source: E. coli BL21 (DE3), purified (amylose resin, Superose 6); not shown: His, N-terminal, kept; MBP, N-terminal, kept
B8: His-MBP-3C-UPA-CARD of CARD8 (uncleaved MBP fusion of CARD8-CT) (domain or fragment, human, UniProt Q9Y2G2-5 297-537, looked up)
chain: B1 chain
notes: CARD8, human, UPA-CARD fragment S297-L537 of the T60 isoform; numbers count on: the T60 isoform Q9Y2G2-5; HRV 3C protease linker between MBP and UPA-CARD; modified pDB-His-MBP vector; also called MBP-fusion protein; MBP-CT fusion protein; source: E. coli BL21 (DE3), purified (amylose resin); not shown: His, N-terminal, kept; MBP, N-terminal, kept

Key:
[1] = target: the molecule itself; assay: cryo-EM structure; purified CARD8 CT filaments (Superose 6 void fraction), A280 = 0.75; 25 mM Tris-HCl pH 7.5, 150 mM NaCl, 1 mM TCEP; helical reconstruction
[2] = target: the molecule itself; assay: negative-stain EM of filaments formed in vitro; recombinant MBP-tagged protein cleaved with 3C protease, sample stained with 1% uranyl formate and imaged
[3] = target: the molecule itself; assay: SEC-MALS; Superdex 200 in 25 mM Tris-HCl pH 8.0, 150 mM NaCl, 2 mM DTT; three-angle light scattering and refractive index detectors
[4] = target: B6; assay: cryo-EM structure; purified ASC^CARD-caspase-1^CARD octamer (tetramer of the fusion protein); single-particle reconstruction; conditions: both partners purified
[5] = target: the molecule itself; assay: as above
[6] = target: the molecule itself; assay: SEC; amylose eluate of His-MBP-NLRP1-CT on Superose 6 in 25 mM Tris-HCl pH 7.5, 150 mM NaCl, 1 mM TCEP; a range of small oligomers
[7] = target: B2; assay: SEC; after partial 3C cleavage, filaments recovered from the Superose 6 void fraction; SDS-PAGE of the fraction shows uncleaved MBP-tagged protein; conditions: both partners purified
[8] = target: B1; assay: as above; conditions: both partners purified

Q: Does B1 bind [1]?
A: binds

Q: Does B2 bind [2]?
A: binds

Q: Does B3 bind [2]?
A: binds

Q: How did the “stoichiometry N” value [3] turn out when B4 was run?
A: 4

Q: Does B5 bind [4]?
A: binds

Q: Does B5 bind [5]?
A: binds

Q: Does B6 bind [5]?
A: binds

Q: Does B7 bind [6]?
A: binds

Q: Does B7 bind [7]?
A: binds

Q: Does B8 bind [8]?
A: binds
